Measurements from patent US20240132589A1 (ONCORESPONSE, published 2024).

Key:
[1] = target: T1, Recombinant human LILRB2 protein (ELISA antigen) (human, UniProt Q8N423 22-460); test: ELISA, plate-coated recombinant human LILRB2
T1 construct: also called LILRB2-His; recombinant LILRB2
Description: To confirm binding to human and cynomolgus LILRB2, antibodies in supernatants were evaluated for binding by enzyme-linked immunosorbent assay (ELISA). Recombinant LILRB2 proteins (human: SEQ ID NO: 48; cynomolgus) were diluted in PBS to 2 μg/mL and added to 384-well high-binding ELISA plates (Greiner Bio-One Microlon™) at 25 μL/well and incubated at 4° C. overnight. The plates were washed three times with Wash Buffer (0.05% Tween® 20 in PBS), using a microplate washer and then blocked with 90 μL/well of ELISA Blocking Buffer A (1% BSA in PBS) for 1 hour at room temperature (RT). After blocking, 25 μL/well of LILRB2 antibodies or isotype control were added to the plates and incubated for 1 hour at RT. After primary antibody binding, plates were washed three times with Wash Buffer using a microplate washer. Secondary detection antibody (HRP-goat anti-rabbit Fab fragment) was diluted to 1:3000 in assay diluent (1% BSA in PBS) and 25 μL/well was added to plates and incubated at RT protected from light for 1 hour. Following incubation, plates were washed four times with Wash Buffer, using a microplate washer. […] After development, the reaction was stopped by addition of 25 μL/well of 0.3 M HCl, and plates were read using an EnVision (Perkin Elmer) microplate reader at 450 nm. EC₅₀ values were calculated based on log concentration of the primary antibodies at optical density at 450 nm.

LILRB2-Fc protein = target: T2, LILRB2-Fc protein (human, UniProt Q8N423 22-460, limits assumed); test: blocking ELISA: LILRB2-Fc pre-incubated with antibody titration, binding to coated monomer HLA-G
T2 construct: also called human LILRB2-Fc; not shown: Fc part
Description: Tumor-associated HLA-G is an HLA Class I ligand for LILRB2. Binding of HLA-G to LILRB2 induces an immune suppressive signal in LILRB2 expressing myeloid cells. To determine if the anti-LILRB2 antibodies block the HLA-G-LILRB2 interaction and prevent the induction of an inhibitory signal, blocking ELISA assays in a dose titration were performed. 384-well plates were coated with monomer HLA-G (Fred Hutchinson Cancer Research Center, No. bHLA-G) at a concentration of 5 μg/mL, diluted in PBS, then plates were incubated at RT for 1 hour. Plates were rinsed with Wash Buffer three times, then blocked with Blocking Buffer A for 30 minutes at RT. During blocking incubation step, LILRB2-Fc protein and antibody titrations were prepared in Blocking Buffer A. LILRB2-Fc protein was then incubated with antibody titrations for 30 minutes at RT to allow for binding prior to addition onto plate. Plates were rinsed three times with Wash Buffer, then 25 μL of protein/antibody mixture was added per well and incubated for 1 hour at RT. Following antibody incubation, plates were washed three times with Wash Buffer. Anti-human IgG Fc-HRP secondary antibody was diluted and added at 25 μL/well. Plates were incubated in the dark for 1 hour at RT. Following secondary antibody incubation, plates were washed four times with Wash Buffer. […] Absorbance was read at 450 nm using the Envision. […]

T2 sequence (Q8N423 22-460 limits assumed): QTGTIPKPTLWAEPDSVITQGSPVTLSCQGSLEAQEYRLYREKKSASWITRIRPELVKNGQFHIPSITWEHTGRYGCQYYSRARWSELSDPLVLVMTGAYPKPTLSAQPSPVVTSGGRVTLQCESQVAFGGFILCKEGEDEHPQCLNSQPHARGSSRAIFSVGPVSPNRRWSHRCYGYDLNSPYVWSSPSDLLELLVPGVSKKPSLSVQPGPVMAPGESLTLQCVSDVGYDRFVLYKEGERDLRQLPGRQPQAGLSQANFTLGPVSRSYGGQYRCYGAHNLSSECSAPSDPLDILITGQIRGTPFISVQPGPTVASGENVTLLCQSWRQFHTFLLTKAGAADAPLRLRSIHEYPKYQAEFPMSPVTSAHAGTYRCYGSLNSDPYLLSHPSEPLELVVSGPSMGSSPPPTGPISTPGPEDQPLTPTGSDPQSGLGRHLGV
T1 sequence (Q8N423 other isoform, or with tags, fused parts or gaps limits assumed): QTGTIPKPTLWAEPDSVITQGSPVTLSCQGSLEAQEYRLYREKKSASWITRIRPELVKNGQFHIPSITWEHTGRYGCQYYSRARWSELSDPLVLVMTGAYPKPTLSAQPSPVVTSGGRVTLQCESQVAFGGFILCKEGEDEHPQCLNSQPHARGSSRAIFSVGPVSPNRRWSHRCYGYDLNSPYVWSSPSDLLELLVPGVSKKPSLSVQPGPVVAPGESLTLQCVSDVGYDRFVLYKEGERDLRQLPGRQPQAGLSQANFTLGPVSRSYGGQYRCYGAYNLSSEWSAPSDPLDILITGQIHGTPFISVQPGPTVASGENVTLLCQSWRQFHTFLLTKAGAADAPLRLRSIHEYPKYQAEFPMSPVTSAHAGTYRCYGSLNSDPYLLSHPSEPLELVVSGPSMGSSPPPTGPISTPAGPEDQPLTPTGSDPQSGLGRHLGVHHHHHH

B1: B2A-IgG1 (antibody)
heavy: not shown
light: DVVMTQTPSSVSAALGGTVTIKCQASQSIGSNLAWYQLKPGQRPKLLIYAAATLASGGSSRFKGSGSGTDFTLTISDLECADAATYYCQSYVSGSSDVAFGGGTEVVVKRTVAAPSVFIFPPSDEQLKSGTASVVCLLNNFYPREAKVQWKVDNALQSGNSQESVTEQDSKDSTYSLSSTLTLSKADYEKHKVYACEVTHQGLSSPVTKSFNRGEC
notes: Rabbit variable regions on human IgG1 / kappa constant regions; AF647-conjugated in some flow assays; also called B2A-IgG1 chimera; anti-LILRB2 B2A-IgG1
EC50 [1]: 0.00381 µg/mL

B2: B2A-IgG4 (antibody)
heavy: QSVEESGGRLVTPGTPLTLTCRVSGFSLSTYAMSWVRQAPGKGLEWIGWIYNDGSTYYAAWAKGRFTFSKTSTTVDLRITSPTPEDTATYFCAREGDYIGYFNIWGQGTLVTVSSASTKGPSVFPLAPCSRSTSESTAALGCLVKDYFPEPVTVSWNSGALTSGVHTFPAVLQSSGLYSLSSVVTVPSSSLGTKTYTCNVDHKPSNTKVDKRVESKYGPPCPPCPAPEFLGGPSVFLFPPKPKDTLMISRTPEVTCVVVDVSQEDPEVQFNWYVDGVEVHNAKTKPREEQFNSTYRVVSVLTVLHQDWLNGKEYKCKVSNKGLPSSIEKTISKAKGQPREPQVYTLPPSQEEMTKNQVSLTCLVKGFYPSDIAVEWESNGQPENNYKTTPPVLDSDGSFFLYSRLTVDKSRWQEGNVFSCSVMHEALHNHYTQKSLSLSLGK
light: DVVMTQTPSSVSAALGGTVTIKCQASQSIGSNLAWYQLKPGQRPKLLIYAAATLASGGSSRFKGSGSGTDFTLTISDLECADAATYYCQSYVSGSSDVAFGGGTEVVVKRTVAAPSVFIFPPSDEQLKSGTASVVCLLNNFYPREAKVQWKVDNALQSGNSQESVTEQDSKDSTYSLSSTLTLSKADYEKHKVYACEVTHQGLSSPVTKSFNRGEC
notes: Rabbit variable regions on human IgG4 / kappa constant regions; also called B2A-IgG4 chimera; Parent B2A-IgG4
IC50 (LILRB2-Fc protein): 0.066 µg/mL
